# Reference: patent US20200330603A1, “PEPTIDES FOR RENAL THERAPY” (FRED HUTCHINSON CANCER RESEARCH CENTER, priority 2015, published 2020)
# Several values for one entry are separate records, joined by “and”; a condition that tells them apart may be missing. Equal entries are not always repeated.
# Tested on: trypsin
# Test: Peptide stability in the presence of trypsin, RP-HPLC
# Format: in vitro ADME
# Conditions: 5 μg trypsin, pH 7.0, 30 minutes at 37.5° C.
# Protocol: (§1) This example describes peptide stability in the presence of pepsin, trypsin, a reducing agent, or elevated temperature. Peptides were first suspended in 500 µl of ddH2O to a stock concentration of 2 mg/ml. […] These reactions were then quenched with 5 μg of soybean trypsin inhibitor (I) and, in some cases, 10 mM dithiothreitol (DTT). […] Temperature stability was tested by incubating peptides in non-reducing conditions at 70° C. for 1 hour. Stability was evaluated by RP-HPLC.
row,Sequence,Trypsin
1,GSQVQTNVKCQGGSCASVCRREIGVAAGKCINGKCVCYRN [SEQ ID NO: 17],Partially Resistant
2,GSQVSTNKKCSNTSQCYKTCEKVVGVAAGKCMNGKCICYP [SEQ ID NO: 37],Partially Resistant
3,GSRPTDIKCSASYQCFPVCKSRFGKTNGRCVNGLCDCF [SEQ ID NO: 24],Partially Resistant
4,GSSCAKPGEMCMRIKCCDGQCGCNRGTGRCFCK [SEQ ID NO: 31],Partially Resistant
5,GSSCAKPRENCNRMNILCCRGECVCPTFGDCFCYGD [SEQ ID NO: 10],Not Resistant
6,GSSDYCSNDFCFFSCRRDRCARGDCENGKCVCKNCHLN [SEQ ID NO: 29],Partially Resistant
7,GSSEKDCIKHLQRCRENKDCCSKKCSRRGTNPEKRCR [SEQ ID NO: 9],Partially Resistant
8,GSVRIPVSCKHSGQCLKPCKDAGMRFGKCMNGKCDCTPK [SEQ ID NO: 12],Not Resistant
9,GSVVIGQRCYRSPDCYSACKKLVGKATGKCTNGRCDC [SEQ ID NO: 33],Not Resistant

# Tested on: pepsin
# Test: Peptide stability in the presence of pepsin, RP-HPLC
# Format: in vitro ADME
# Conditions: 20 μg pepsin, pH 1.05, 30 minutes at 37.5° C.
# Protocol: as §1
row,Sequence,Pepsin
1,GSSCAKPRENCNRMNILCCRGECVCPTFGDCFCYGD [SEQ ID NO: 10],Resistant
2,GSVVIGQRCYRSPDCYSACKKLVGKATGKCTNGRCDC [SEQ ID NO: 33],Resistant

# Tested on: not listed separately
# Test: Whole body autoradiography of 14C labeled peptides, renal cortex and blood
# Format: in vivo, mice
# Conditions: renal cortex vs blood from the ventricle, 100 nmol iv, 3 hours
# Excerpt: This example describes radiolabeling of peptides of this disclosure. Several knotted peptides were radiolabeled by reductive methylation with ^14C formaldehyde and sodium cyanoborohydride with standard techniques. The sequences were engineered to have the amino acids, “G” and “S” at the N terminus. See Methods in Enzymology V91:1983 p. 570 and JBC 254(11):1979 p. 4359. An excess of formaldehyde was used to ensure complete methylation (dimethylation of every free amine). The labeled peptides were isolated via solid-phase extraction on Strata-X columns (Phenomenex 8B-S100-AAK), rinsed with water with 5% methanol, and recovered in methanol with 2% formic acid. Solvent was subsequently removed in a blowdown evaporator with gentle heat and a stream of nitrogen gas. The final product was verified and characterized by high performance liquid chromatography (HPLC).
# This example illustrates accumulation of peptides of the present disclosure in kidneys measured by whole body autoradiography. Peptides of the present disclosure were radiolabeled as described in EXAMPLE 2. 100 nmol of ^14C labeled peptides were administered intravenously in mice. Radiolabeled peptide signal was quantified in the renal cortex and blood from the ventricle in 2-3 sections per mouse in 2 mice total. Whole body autoradiography analysis was performed with AIDA.
# SEQ ID NO: 55 and SEQ ID NO: 119 ([…]), a linearized version of SEQ ID NO: 55, were radiolabeled with ^14C as described in EXAMPLE 2 and administered intravenously in mice at a dose of 100 nmol. Radiolabeled peptide signal was quantified in the renal cortex and blood from the ventricle in 2-3 sections per mouse in 2 mice total. Whole body autoradiography analysis was performed with AIDA.
row,Sequence,Signal ratio Kidney:Blood (3 hours)
1,GSGDCLPHLRRCRENNDCCSRRCRRRGANPERRCR [SEQ ID NO: 59],31.2
2,GSGVPINVRCRGSRDCLDPCRRAGMRFGRCINSRCHCTP [SEQ ID NO: 55],42.2 and 42.4
3,"GSGVPINVRSRGSRDSLDPSRRAGMRFGRSINSRSHSTP [SEQ ID NO: 119, reference compound]",5.1
4,GSQVQTNVRCQGGSCASVCRREIGVAAGRCINGRCVCYRN [SEQ ID NO: 58],9.9
5,GSSERDCIRHLQRCRENRDCCSRRCSRRGTNPERRCR [SEQ ID NO: 56],29.9
6,GSVRIPVSCRHSGQCLRPCRDAGMRFGRCMNGRCDCTPR [SEQ ID NO: 57],8

# Same assay, conditions: renal cortex vs blood from the ventricle, 100 nmol iv, 24 hours
row,Sequence,Signal ratio Kidney:Blood (24 hours)
1,GSGDCLPHLRRCRENNDCCSRRCRRRGANPERRCR [SEQ ID NO: 59],6.1
2,GSGVPINVRCRGSRDCLDPCRRAGMRFGRCINSRCHCTP [SEQ ID NO: 55],10.7
3,"GSGVPINVRSRGSRDSLDPSRRAGMRFGRSINSRSHSTP [SEQ ID NO: 119, reference compound]",6.9
4,GSQVQTNVRCQGGSCASVCRREIGVAAGRCINGRCVCYRN [SEQ ID NO: 58],4.1
5,GSSERDCIRHLQRCRENRDCCSRRCSRRGTNPERRCR [SEQ ID NO: 56],7.5
6,GSVRIPVSCRHSGQCLRPCRDAGMRFGRCMNGRCDCTPR [SEQ ID NO: 57],6.4

# Same assay, conditions: renal cortex, 100 nmol 14C labeled peptide iv, 3 hours
row,Sequence,Pixel density-Bkg/area (3 hours)
1,GSGDCLPHLRRCRENNDCCSRRCRRRGANPERRCR [SEQ ID NO: 59],3.47E+07
2,GSGVPINVRCRGSRDCLDPCRRAGMRFGRCINSRCHCTP [SEQ ID NO: 55],2.73E+07
3,"GSGVPINVRSRGSRDSLDPSRRAGMRFGRSINSRSHSTP [SEQ ID NO: 119, reference compound]",1.71E+06
4,GSQVQTNVRCQGGSCASVCRREIGVAAGRCINGRCVCYRN [SEQ ID NO: 58],7.73E+06
5,GSSERDCIRHLQRCRENRDCCSRRCSRRGTNPERRCR [SEQ ID NO: 56],1.48E+07
6,GSVRIPVSCRHSGQCLRPCRDAGMRFGRCMNGRCDCTPR [SEQ ID NO: 57],4.63E+06

# Same assay, conditions: renal cortex, 100 nmol 14C labeled peptide iv, 24 hours
row,Sequence,Pixel density-Bkg/area (24 hours)
1,GSGDCLPHLRRCRENNDCCSRRCRRRGANPERRCR [SEQ ID NO: 59],2.13E+06
2,GSGVPINVRCRGSRDCLDPCRRAGMRFGRCINSRCHCTP [SEQ ID NO: 55],2.25E+06
3,"GSGVPINVRSRGSRDSLDPSRRAGMRFGRSINSRSHSTP [SEQ ID NO: 119, reference compound]",2.41E+06
4,GSQVQTNVRCQGGSCASVCRREIGVAAGRCINGRCVCYRN [SEQ ID NO: 58],1.30E+06
5,GSSERDCIRHLQRCRENRDCCSRRCSRRGTNPERRCR [SEQ ID NO: 56],2.30E+06
6,GSVRIPVSCRHSGQCLRPCRDAGMRFGRCMNGRCDCTPR [SEQ ID NO: 57],1.03E+06

# Tested on: not listed separately
# Test: Plasma creatinine, Jaffe reaction method (Example 14)
# Format: in vivo, mice
# Conditions: Table 3; 100 nmol iv, 24 hours post-peptide administration
# Protocol: (§2) This example illustrates assessment of renal injury by peptides of this disclosure. Mice were injected intravenously at a dose of 100 nmol, which is approximately 16 mg/kg. PBS was administered as a negative control. At 24 hours post-peptide administration, mice were euthanized and plasma blood urea nitrogen (BUN) and plasma creatinine were measured. The blood urea nitrogen (BUN) assay was performed to assess renal toxicity with a commercially available kit. Plasma creatinine concentrations were determined using the colorimetrically corrected Jaffe reaction method. Additionally, the kidneys from these mice were removed, sectioned, and stained using periodic acid Schiff (PAS). […] Histological analysis corroborated the mRNA/protein data.
row,Sequence,Plasma Creatinine [mg/dL]
1,GGYSRCQLQGFNCVVRSYGLPTIPCCRGLTCRSYFPGSTYGRCQRY [SEQ ID NO: 53],0.35
2,GSSFGLCRLRRGFCARGRCRFPSIPIGRCSRFVQCCRRVW [SEQ ID NO: 45],0.39

# Tested on: not listed separately
# Test: Blood urea nitrogen (BUN) assay in plasma, renal biocompatibility (Example 4)
# Format: in vivo, mice
# Conditions: 100 nmol per mouse intravenously, after 24 hours, one value per mouse
# Protocol: This example describes renal biocompatibility of peptides of this disclosure. The peptides of SEQ ID NO: 18, SEQ ID NO: 20, SEQ ID NO: 21, SEQ ID NO: 26, SEQ ID NO: 36, SEQ ID NO: 39, SEQ ID NO: 45 and SEQ ID NO: 53 were intravenously dosed into mice at 100 nmol per mouse. After 24 hours, mice were anesthesized with Ketamine-Xylazine and euthanized. Plasma and kidneys were removed as quickly as possible after euthanization. A blood urea nitrogen (BUN) assay was performed to assess renal toxicity with a commercially available kit.
# The average BUN concentration in plasma for naïve mice was 25 mg/dL, with a standard error of 2 mg/dL. The average BUN concentration in plasma for peptide-dosed mice was 21, with a standard error of 1 mg/dL.
row,Sequence,Peptide BUN
1,GGYSRCQLQGFNCVVRSYGLPTIPCCRGLTCRSYFPGSTYGRCQRY [SEQ ID NO: 53],19 mg/dL and 22 mg/dL
2,GSSFGLCRLRRGFCARGRCRFPSIPIGRCSRFVQCCRRVW [SEQ ID NO: 45],21 mg/dL and 22 mg/dL

# Tested on: not listed separately
# Test: Kidney histology, periodic acid Schiff (PAS) stain
# Format: in vivo, mice
# Conditions: 24 hours after intravenous administration of 100 nmol
# Protocol: as §2
row,Sequence,"renal physiology (PAS histology, FIG. 24)"
1,GGYSRCQLQGFNCVVRSYGLPTIPCCRGLTCRSYFPGSTYGRCQRY [SEQ ID NO: 53],normal renal physiology
2,GSSFGLCRLRRGFCARGRCRFPSIPIGRCSRFVQCCRRVW [SEQ ID NO: 45],normal renal physiology

# Tested on: not listed separately
# Test: Temperature stability at 70° C., RP-HPLC
# Format: physicochemical
# Conditions: non-reducing conditions, 70° C. for 1 hour
# Protocol: as §1
row,Sequence,Temperature (70° C.)
1,GSSCAKPRENCNRMNILCCRGECVCPTFGDCFCYGD [SEQ ID NO: 10],Resistant
2,GSVVIGQRCYRSPDCYSACKKLVGKATGKCTNGRCDC [SEQ ID NO: 33],Resistant

# Tested on: not listed separately
# Test: Plasma BUN, assessment of renal injury (Example 14)
# Format: in vivo, mice
# Conditions: Table 3; 100 nmol iv (approximately 16 mg/kg), 24 hours post-peptide administration
# Protocol: as §2
row,Sequence,Plasma BUN [mg/dL]
1,GGYSRCQLQGFNCVVRSYGLPTIPCCRGLTCRSYFPGSTYGRCQRY [SEQ ID NO: 53],20.5
2,GSSFGLCRLRRGFCARGRCRFPSIPIGRCSRFVQCCRRVW [SEQ ID NO: 45],21.5

# Tested on: not listed separately
# Test: Peptide stability to a reducing agent (DTT), RP-HPLC
# Format: physicochemical
# Conditions: 10 mM DTT in PBS, room temperature, 30 minutes
# Protocol: as §1
row,Sequence,Reduction
1,GSQVQTNVKCQGGSCASVCRREIGVAAGKCINGKCVCYRN [SEQ ID NO: 17],Not Resistant
2,GSQVSTNKKCSNTSQCYKTCEKVVGVAAGKCMNGKCICYP [SEQ ID NO: 37],Not Resistant
3,GSRPTDIKCSASYQCFPVCKSRFGKTNGRCVNGLCDCF [SEQ ID NO: 24],Resistant
4,GSSCAKPGEMCMRIKCCDGQCGCNRGTGRCFCK [SEQ ID NO: 31],Not Resistant
5,GSSCAKPRENCNRMNILCCRGECVCPTFGDCFCYGD [SEQ ID NO: 10],Not Resistant
6,GSSDYCSNDFCFFSCRRDRCARGDCENGKCVCKNCHLN [SEQ ID NO: 29],Not Resistant
7,GSSEKDCIKHLQRCRENKDCCSKKCSRRGTNPEKRCR [SEQ ID NO: 9],Not Resistant
8,GSVRIPVSCKHSGQCLKPCKDAGMRFGKCMNGKCDCTPK [SEQ ID NO: 12],Partially Resistant
9,GSVVIGQRCYRSPDCYSACKKLVGKATGKCTNGRCDC [SEQ ID NO: 33],Not Resistant
